Data from article doi:10.1101/2024.05.17.594765, “Force-activated zyxin assemblies coordinate actin nucleation and crosslinking to orchestrate stress fiber repair” (bioRxiv, 2024).
Values belong to the binder of their own block, whether it stands above or below them.

B1: C-terminally Halo-tagged VASP (VASP-Halo) (natural protein, human, UniProt P50552 1-380, looked up)
chain: MSETVICSSRATVMLYDDGNKRWLPAGTGPQAFSRVQIYHNPTANSFRVVGRKMQPDQQVVINCAIVRGVKYNQATPNFHQWRDARQVWGLNFGSKEDAAQFAAGMASALEALEGGGPPPPPALPTWSVPNGPSPEEVEQQKRQQPGPSEHIERRVSNAGGPPAPPAGGPPPPPGPPPPPGPPPPPGLPPSGVPAAAHGAGGGPPPAPPLPAAQGPGGGGAGAPGLAAAIAGAKLRKVSKQEEASGGPTAPKAESGRSGGGGLMEEMNAMLARRRKATQVGEKTPKDESANQEEPEARVPAQSESVRRPWEKNSTTLPRMKSSSSVTTSETQPCTPSSSDYSDLQRVKQELLEEVKKELQKVKEEIIEAFVQELRKRGSP
modifications: Janelia Fluor 549 Halo-ligand conjugated to the Halo tag
notes: VASP (vasodilator-stimulated phosphoprotein), human; also called VASP^WT; VASP-Halo:JF549; source: E. coli Rosetta2(DE3), purified (Ni-NTA, StrepTrap XT, 3C protease, SEC); not shown: Strep-Tag II, N-terminal, cleaved; Halo, C-terminal, kept; 6xHis-Tag, C-terminal, cleaved
B3: C-terminally Halo-tagged full-length zyxin (zyxin-Halo) (natural protein, human, UniProt Q15942 1-572, looked up)
chain: MAAPRPSPAISVSVSAPAFYAPQKKFGPVVAPKPKVNPFRPGDSEPPPAPGAQRAQMGRVGEIPPPPPEDFPLPPPPLAGDGDDAEGALGGAFPPPPPPIEESFPPAPLEEEIFPSPPPPPEEEGGPEAPIPPPPQPREKVSSIDLEIDSLSSLLDDMTKNDPFKARVSSGYVPPPVATPFSSKSSTKPAAGGTAPLPPWKSPSSSQPLPQVPAPAQSQTQFHVQPQPQPKPQVQLHVQSQTQPVSLANTQPRGPPASSPAPAPKFSPVTPKFTPVASKFSPGAPGGSGSQPNQKLGHPEALSAGTGSPQPPSFTYAQQREKPRVQEKQHPVPPPAQNQNQVRSPGAPGPLTLKEVEELEQLTQQLMQDMEHPQRQNVAVNELCGRCHQPLARAQPAVRALGQLFHIACFTCHQCAQQLQGQQFYSLEGAPYCEGCYTDTLEKCNTCGEPITDRMLRATGKAYHPHCFTCVVCARPLEGTSFIVDQANRPHCVPDYHKQYAPRCSVCSEPIMPEPGRDETVRVVALDKNFHMKCYKCEDCGKPLSIEADDNGCFPLDGHVLCRKCHTARAQT
modifications: Janelia Fluor 646 Halo-ligand conjugated to the Halo tag
notes: zyxin, human, full length; pCAG vector with a C-terminal 3C protease cleavage site and eGFP tag; eGFP removed with 3C protease on the resin; also called zyxin^WT; zyxin-Halo:JF646; source: HEK293F, transfected, purified (anti-GFP nanobody resin, 3C protease, Mono Q, SEC); not shown: Halo, C-terminal, kept; eGFP, C-terminal, cleaved

Assays:
Details in all cases: both partners purified
[1] = target: B3; test: droplet co-partitioning (iSIM fluorescence microscopy); zyxin construct, VASP and ɑ-actinin mixed together in MBOS with 3% PEG 8K, room temperature; small clusters also without PEG 8K at native cellular concentrations
[2] = target: B1; test: as above
[3] = target: T1, C-terminally Halo-tagged ɑ-actinin-1 (ɑ-actinin-Halo) (human, UniProt P12814 1-892, Janelia Fluor 549 Halo-ligand (TIRF assays) or Alexa Fluor 488 Halo-ligand (droplet assays) conjugated to the Halo tag; unlabeled in the bundle assays); test: TIRF microscopy, force reconstitution assay with purified proteins; immobilised myosins, 30% ATTO 488-labeled F-actin, 25 nM (or 250 nM) zyxin-Halo:JF646 and 50 nM ɑ-actinin-Halo:JF549 in MBOS, +ATP (myosin forces); room temperature
T1 construct: ɑ-actinin-1, human; also called ɑ-actinin^WT; ɑ-actinin-Halo:JF549; source: E. coli Rosetta2(DE3), purified (Ni-NTA, TEV protease, HiTrap Q HP, SEC); not shown: 6xHis-Tag, N-terminal, cleaved; Halo, C-terminal, kept
T1 sequence (P12814 whole entry): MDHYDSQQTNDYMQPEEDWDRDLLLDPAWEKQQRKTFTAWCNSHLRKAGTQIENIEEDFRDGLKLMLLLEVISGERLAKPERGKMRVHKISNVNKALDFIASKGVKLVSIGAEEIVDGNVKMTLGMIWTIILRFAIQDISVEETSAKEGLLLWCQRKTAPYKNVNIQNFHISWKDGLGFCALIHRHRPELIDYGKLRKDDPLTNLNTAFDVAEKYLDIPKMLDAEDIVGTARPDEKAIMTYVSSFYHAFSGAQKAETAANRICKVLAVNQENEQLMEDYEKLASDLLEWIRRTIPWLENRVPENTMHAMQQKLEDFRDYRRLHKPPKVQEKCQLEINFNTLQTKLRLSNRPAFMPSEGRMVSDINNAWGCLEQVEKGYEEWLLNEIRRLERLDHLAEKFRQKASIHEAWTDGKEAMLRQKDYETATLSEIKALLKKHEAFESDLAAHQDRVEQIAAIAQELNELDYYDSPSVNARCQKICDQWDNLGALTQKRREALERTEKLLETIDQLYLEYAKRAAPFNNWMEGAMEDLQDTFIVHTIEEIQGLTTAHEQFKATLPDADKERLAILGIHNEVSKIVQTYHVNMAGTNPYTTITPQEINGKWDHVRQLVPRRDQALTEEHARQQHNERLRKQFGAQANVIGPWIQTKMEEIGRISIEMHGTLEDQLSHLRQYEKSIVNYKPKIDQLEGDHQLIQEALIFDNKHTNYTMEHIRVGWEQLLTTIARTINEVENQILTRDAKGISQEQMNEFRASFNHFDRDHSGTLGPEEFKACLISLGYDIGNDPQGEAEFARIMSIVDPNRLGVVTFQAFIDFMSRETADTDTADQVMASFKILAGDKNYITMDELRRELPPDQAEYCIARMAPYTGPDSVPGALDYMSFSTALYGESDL

Binder: B1
- binding result [1]: binds

- binding result [2]: binds
B2: minimal zyxin construct with the N-terminal binding motifs (amino acids 1–160), Halo-tagged (domain or fragment, human, UniProt Q15942 1-160, looked up)
chain: MAAPRPSPAISVSVSAPAFYAPQKKFGPVVAPKPKVNPFRPGDSEPPPAPGAQRAQMGRVGEIPPPPPEDFPLPPPPLAGDGDDAEGALGGAFPPPPPPIEESFPPAPLEEEIFPSPPPPPEEEGGPEAPIPPPPQPREKVSSIDLEIDSLSSLLDDMTK
modifications: Janelia Fluor 646 Halo-ligand conjugated to the Halo tag
notes: zyxin, human, amino acids 1–160; also called zyxin^N-term; source: HEK293F, transfected, purified (anti-GFP nanobody resin, 3C protease, Mono Q, SEC); not shown: Halo, C-terminal, kept; eGFP, C-terminal, cleaved

Binder: B3
- binding result [3]: binds
